PMC9691366, “Modulating the pharmacokinetic profile of Actinium-225-labeled macropa-derived radioconjugates by dual targeting of PSMA and albumin” (Theranostics, 2022)

Assays:
[1] = Ex vivo biodistribution in LNCaP tumor-bearing SCID mice; settings: mouse, in vivo, 50 kBq per mouse; for tissue uptake at 1 h: 1 h p.i.; for tissue uptake at 4 h: 4 h p.i.; for tissue uptake at 24 h: 24 h p.i.; for tissue uptake at 48 h: 48 h p.i.; for tissue uptake at 72 h: 72 h p.i.; for tissue uptake at 120 h: 120 h p.i.
Text: (§1) The biodistribution experiments with [^225Ac]Ac-mcp-M-alb-PSMA and [^225Ac]Ac-mcp-D-alb-PSMA were accomplished using LNCaP tumor-bearing mice. The SCID male mice (ENVIGO, Indianapolis, IN, USA) 8 weeks old were subcutaneously xenografted into the right flank with 10∙10^6 LNCaP cells (ATCC, Manassas, VA, USA) mixed with Matrigel Matrix (Corning Inc., Corning, NY, USA) at a 1:1 ratio. The tumor growth was periodically monitored by caliper-based measurements. When the tumor volume reached 200-300 mm^3 (i.e., approx. 6 weeks after the xenografting of the cells), the mice were enrolled in the biodistribution study. All experimental animals were housed in a specific-pathogen-free animal facility and all experiments with animals were performed in accordance with appropriate legal norms (Czech Law No. 246/1992) and with the approval of the Ministry of Education, Youth and Sports (MSMT-35035/2019-3) and approval of the Ethical committee of Faculty of Medicine and Dentistry, Palacky University in Olomouc. The number of animals was reduced as much as possible (n = 3-4 per group and time point) for in vivo experiments in order to strictly follow 3Rs principle.
(§2) For the purpose of biodistribution studies, the ^225Ac-radioconjugates were diluted with saline. The diluted ^225Ac-radioconjugates were applied retro-orbitally (r.o.) to the experimental animals at a dose of 50 kBq per mouse corresponding to 10 pmol of the PSMA-inhibitor. The radioactivity application was carried out under 2% isoflurane anesthesia (FORANE, Abbott Laboratories, Abbott Park, IL, USA) to minimize animal suffering and to prevent animal motion. The mice were sacrificed by cervical dislocation 1, 4, 24, 48, 72, and 120 h (plus 168 h for [^225Ac]Ac-mcp-D-alb-PSMA) post-injection and organs of interest (blood, spleen, pancreas, stomach, intestine, kidneys, liver, heart, lungs, muscle, bone, and tumor) were collected. The organs were weighed, and their radioactivity was counted on an automatic gamma counter. The uptake of the ^225Ac-radioconjugates was expressed as a percentage of injected dose per gram of the corresponding organ (%ID/g). The area under the curve (AUC) was determined for both tested PSMA ligands from non-decay-corrected data obtained from the ex vivo biodistribution data of the tumors, kidneys, and blood.

[2] = system: LNCaP tumor-bearing SCID mice; assay: as above
Text: as §1, §2

[3] = non-decay corrected biodistribution data, mean ± SD

## O=C(O)CC[C@H](NC(=O)N[C@@H](CCCCNC(=O)[C@H](Cc1ccc2ccccc2c1)NC(=O)[C@H]1CC[C@H](CNC(=O)[C@H](CCCCn2cc(COc3cc(CN4CCOCCOCCN(Cc5cccc(C(=O)O)n5)CCOCCOCC4)nc(C(=O)O)c3)nn2)NC(=O)[C@H](CCC(=O)O)NC(=O)CCCc2ccc(I)cc2)CC1)C(=O)O)C(=O)O [[^225Ac]Ac-mcp-M-alb-PSMA, metal not drawn]
[1]; male, SCID, total radioactivity
  tissue to tissue ratio: 1490
[1]; blood uptake (AV)
  tissue uptake at 1 h: 6.47 %ID/g
  tissue uptake at 4 h: 4.8 %ID/g
  tissue uptake at 24 h: 0.54 %ID/g
  tissue uptake at 48 h: 0.08 %ID/g
  tissue uptake at 72 h: 0.03 %ID/g
  tissue uptake at 120 h: 0.03 %ID/g
[1]; femur uptake (AV)
  tissue uptake at 1 h: 0.61 %ID/g
  tissue uptake at 4 h: 0.62 %ID/g
  tissue uptake at 24 h: 0.32 %ID/g
  tissue uptake at 48 h: 0.44 %ID/g
  tissue uptake at 72 h: 0.32 %ID/g
  tissue uptake at 120 h: 0.43 %ID/g
[1]; heart uptake (AV)
  tissue uptake at 1 h: 2.03 %ID/g
  tissue uptake at 4 h: 1.63 %ID/g
  tissue uptake at 24 h: 0.34 %ID/g
  tissue uptake at 48 h: 0.22 %ID/g
  tissue uptake at 72 h: 0.15 %ID/g
  tissue uptake at 120 h: 0.23 %ID/g
[1]; intestine uptake (AV)
  tissue uptake at 1 h: 0.6 %ID/g
  tissue uptake at 4 h: 0.54 %ID/g
  tissue uptake at 24 h: 0.81 %ID/g
  tissue uptake at 48 h: 0.1 %ID/g
  tissue uptake at 72 h: 0.12 %ID/g
  tissue uptake at 120 h: 0.06 %ID/g
[1]; kidneys uptake (AV)
  tissue uptake at 1 h: 29.5 %ID/g
  tissue uptake at 4 h: 67.9 %ID/g
  tissue uptake at 24 h: 33.1 %ID/g
  tissue uptake at 48 h: 15.7 %ID/g
  tissue uptake at 72 h: 9.59 %ID/g
  tissue uptake at 120 h: 8.82 ± 4.4 %ID/g
[1]; liver uptake (AV)
  tissue uptake at 1 h: 1.44 %ID/g
  tissue uptake at 4 h: 1.43 %ID/g
  tissue uptake at 24 h: 1.08 %ID/g
  tissue uptake at 48 h: 1.19 %ID/g
  tissue uptake at 72 h: 1.08 %ID/g
  tissue uptake at 120 h: 1.27 %ID/g
[1]; lung uptake (AV)
  tissue uptake at 1 h: 6.27 %ID/g
  tissue uptake at 4 h: 4.99 %ID/g
  tissue uptake at 24 h: 2.19 %ID/g
  tissue uptake at 48 h: 1.77 %ID/g
  tissue uptake at 72 h: 1.47 %ID/g
  tissue uptake at 120 h: 1.73 %ID/g
[1]; muscle uptake (AV)
  tissue uptake at 1 h: 0.53 %ID/g
  tissue uptake at 4 h: 0.51 %ID/g
  tissue uptake at 24 h: 0.14 %ID/g
  tissue uptake at 48 h: 0.07 %ID/g
  tissue uptake at 72 h: 0.08 %ID/g
  tissue uptake at 120 h: 0.12 %ID/g
[1]; pancreas uptake (AV)
  tissue uptake at 1 h: 0.57 %ID/g
  tissue uptake at 4 h: 0.57 %ID/g
  tissue uptake at 24 h: 0.26 %ID/g
  tissue uptake at 48 h: 0.1 %ID/g
  tissue uptake at 72 h: 0.06 %ID/g
  tissue uptake at 120 h: 0.07 %ID/g
[1]; spleen uptake (AV)
  tissue uptake at 1 h: 7.24 %ID/g
  tissue uptake at 4 h: 3.4 %ID/g
  tissue uptake at 24 h: 1.24 %ID/g
  tissue uptake at 48 h: 1.31 %ID/g
  tissue uptake at 72 h: 1.12 %ID/g
  tissue uptake at 120 h: 1.43 %ID/g
[1]; stomach uptake (AV)
  tissue uptake at 1 h: 0.83 %ID/g
  tissue uptake at 4 h: 0.58 %ID/g
  tissue uptake at 24 h: 0.39 %ID/g
  tissue uptake at 48 h: 0.17 %ID/g
  tissue uptake at 72 h: 0.1 %ID/g
  tissue uptake at 120 h: 0.11 %ID/g
[1]; tumor uptake (AV)
  tissue uptake at 1 h: 5.96 %ID/g
  tissue uptake at 4 h: 18 %ID/g
  tissue uptake at 24 h: 29.5 %ID/g
  tissue uptake at 48 h: 36.5 %ID/g
  tissue uptake at 72 h: 38.7 %ID/g
  tissue uptake at 120 h: 46 %ID/g
[1]; tumor uptake (highest accumulation), 128 h p.i.
  tissue uptake at 128 h: 46 ± 7.77 %ID/g
[2]; mouse, in vivo
  AUCTu-to-AUCBl: 26
  AUCTu-to-AUCKi: 1.5
  AUCTu-to-AUCLi: 29
  blood clearance: duration of excretion: 24 h
  maximal tumor uptake compared to counterpart without dedicated albumin binder: approximately four times higher
[2]; [3]
  AUC Blood: 132 ± 7.2 %ID/g.h
  AUC Kidneys: 2269 ± 288 %ID/g.h
  AUC Liver: 119 ± 4.6 %ID/g.h
  AUC Tumor: 3494 ± 194 %ID/g.h
